The record followed here is article PMC12284294 (iScience, 2025).

Assay [1] addresses T1, FPR1 (Homo sapiens, UniProt P21462).
T1 construct: expressed in transfected cells; host or cells: HEK293T
T1 sequence (P21462 1-350): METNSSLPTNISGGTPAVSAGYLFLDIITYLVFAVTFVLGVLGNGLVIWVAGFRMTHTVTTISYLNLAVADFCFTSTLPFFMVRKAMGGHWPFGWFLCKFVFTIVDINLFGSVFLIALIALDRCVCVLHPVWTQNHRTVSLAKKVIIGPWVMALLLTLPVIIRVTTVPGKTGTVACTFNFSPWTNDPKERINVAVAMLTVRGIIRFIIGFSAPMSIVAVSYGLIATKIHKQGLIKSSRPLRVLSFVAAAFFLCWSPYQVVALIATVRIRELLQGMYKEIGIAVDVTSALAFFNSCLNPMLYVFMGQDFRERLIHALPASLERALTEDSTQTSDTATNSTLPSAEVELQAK
Nature of the assay: biochemical. Type of assay: binding.

The next assay deals with T2, FPR2 (Homo sapiens, UniProt P25090).
T2 construct: expressed in transfected cells; host or cells: HEK293T
T2 sequence (P25090 1-351): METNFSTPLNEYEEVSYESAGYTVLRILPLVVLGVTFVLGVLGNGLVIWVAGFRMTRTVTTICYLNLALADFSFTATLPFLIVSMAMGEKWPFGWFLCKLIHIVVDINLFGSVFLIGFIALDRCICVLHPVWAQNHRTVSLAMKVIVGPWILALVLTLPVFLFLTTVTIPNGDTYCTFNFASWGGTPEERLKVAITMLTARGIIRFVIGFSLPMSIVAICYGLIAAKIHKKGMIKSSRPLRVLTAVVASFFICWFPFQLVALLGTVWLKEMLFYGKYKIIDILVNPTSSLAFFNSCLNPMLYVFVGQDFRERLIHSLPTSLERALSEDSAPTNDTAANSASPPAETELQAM
Nature of the assay: cell-based. It counts as binding.

For assay [2], the target named is T1, FPR1. Nature of the assay: cell-based. It counts as binding.
For a further assay, the target named is T3, FPR3 (Homo sapiens, UniProt P25089).
T3 construct: expressed in transfected cells; host or cells: HEK293T
T3 sequence (P25089 1-353): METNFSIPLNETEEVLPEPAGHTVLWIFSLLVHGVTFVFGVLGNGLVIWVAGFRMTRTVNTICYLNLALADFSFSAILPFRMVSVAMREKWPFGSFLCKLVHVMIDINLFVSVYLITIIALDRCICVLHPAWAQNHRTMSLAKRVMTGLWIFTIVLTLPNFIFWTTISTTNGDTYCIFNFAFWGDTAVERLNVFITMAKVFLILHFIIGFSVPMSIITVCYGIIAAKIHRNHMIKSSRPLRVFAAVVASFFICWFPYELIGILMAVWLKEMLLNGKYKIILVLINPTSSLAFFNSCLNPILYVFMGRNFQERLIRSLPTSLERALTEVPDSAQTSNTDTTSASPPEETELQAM
As to the kind of experiment: cell-based. Type of assay: binding.

Assay [3] has as its target T4, Formyl peptide receptor 3 (human, UniProt P25089 1-353).
T4 sequence (looked up): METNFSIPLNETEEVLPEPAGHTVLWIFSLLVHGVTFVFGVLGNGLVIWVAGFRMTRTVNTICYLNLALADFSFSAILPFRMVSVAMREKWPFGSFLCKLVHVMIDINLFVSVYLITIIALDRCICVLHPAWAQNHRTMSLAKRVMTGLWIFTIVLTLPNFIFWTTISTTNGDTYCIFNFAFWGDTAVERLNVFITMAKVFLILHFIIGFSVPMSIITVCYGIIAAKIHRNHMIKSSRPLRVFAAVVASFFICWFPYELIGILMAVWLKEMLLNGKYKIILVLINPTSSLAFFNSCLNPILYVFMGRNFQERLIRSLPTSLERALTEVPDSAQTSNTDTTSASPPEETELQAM
To be noted: one partner purified.

Assay [4] deals with T5, Formyl peptide receptor 1 (human, UniProt P21462 1-350).
T5 sequence (looked up): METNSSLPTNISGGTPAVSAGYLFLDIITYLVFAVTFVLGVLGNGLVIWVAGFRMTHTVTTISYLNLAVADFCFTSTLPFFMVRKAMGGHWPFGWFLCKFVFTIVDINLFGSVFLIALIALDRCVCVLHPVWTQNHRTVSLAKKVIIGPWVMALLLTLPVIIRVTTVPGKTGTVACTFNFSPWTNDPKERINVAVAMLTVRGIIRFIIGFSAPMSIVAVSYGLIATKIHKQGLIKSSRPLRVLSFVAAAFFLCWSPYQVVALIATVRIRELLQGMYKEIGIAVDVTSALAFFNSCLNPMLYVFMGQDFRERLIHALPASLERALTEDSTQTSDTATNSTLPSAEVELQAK
To be noted: one partner purified.

For assay [5], the target named is T6, Formyl peptide receptor 2 (human, UniProt P25090 1-351).
T6 sequence (looked up): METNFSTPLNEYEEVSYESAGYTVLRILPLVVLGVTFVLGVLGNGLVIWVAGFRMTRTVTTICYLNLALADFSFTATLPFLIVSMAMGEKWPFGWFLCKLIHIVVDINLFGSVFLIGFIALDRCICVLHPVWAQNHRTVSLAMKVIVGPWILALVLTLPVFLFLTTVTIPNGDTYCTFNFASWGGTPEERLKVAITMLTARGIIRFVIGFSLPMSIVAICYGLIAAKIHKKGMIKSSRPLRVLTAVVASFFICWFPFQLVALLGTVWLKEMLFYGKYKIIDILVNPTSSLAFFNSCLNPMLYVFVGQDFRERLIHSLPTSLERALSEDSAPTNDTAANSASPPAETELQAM
To be noted: one partner purified.

Assay [6] concerns the target T7, Formyl peptide receptor 1 (human, UniProt P21462 1-350).
T7 chain: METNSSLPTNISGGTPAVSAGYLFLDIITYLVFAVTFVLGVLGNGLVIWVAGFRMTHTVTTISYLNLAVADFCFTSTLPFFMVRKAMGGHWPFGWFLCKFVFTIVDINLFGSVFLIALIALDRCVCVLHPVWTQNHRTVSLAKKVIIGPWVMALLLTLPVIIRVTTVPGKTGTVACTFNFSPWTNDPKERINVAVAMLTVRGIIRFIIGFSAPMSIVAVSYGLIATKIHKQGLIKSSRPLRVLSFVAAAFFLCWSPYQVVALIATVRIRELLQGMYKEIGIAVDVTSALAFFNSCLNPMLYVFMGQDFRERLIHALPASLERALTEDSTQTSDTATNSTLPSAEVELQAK

The target in assay [7] is T8, Formyl peptide receptor 2 (human, UniProt P25090 1-351).
T8 chain: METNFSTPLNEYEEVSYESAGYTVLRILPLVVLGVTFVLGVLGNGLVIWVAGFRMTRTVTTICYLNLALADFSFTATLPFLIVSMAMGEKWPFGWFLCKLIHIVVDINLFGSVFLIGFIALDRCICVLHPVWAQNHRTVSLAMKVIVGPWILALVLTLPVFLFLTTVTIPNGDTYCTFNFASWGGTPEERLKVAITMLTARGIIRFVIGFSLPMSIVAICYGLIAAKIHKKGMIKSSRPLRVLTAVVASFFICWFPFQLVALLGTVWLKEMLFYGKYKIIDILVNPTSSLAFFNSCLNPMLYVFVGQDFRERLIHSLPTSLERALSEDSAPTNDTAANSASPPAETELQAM

Assay [8] addresses T9, Formyl peptide receptor 3 (human, UniProt P25089 1-353).
T9 chain: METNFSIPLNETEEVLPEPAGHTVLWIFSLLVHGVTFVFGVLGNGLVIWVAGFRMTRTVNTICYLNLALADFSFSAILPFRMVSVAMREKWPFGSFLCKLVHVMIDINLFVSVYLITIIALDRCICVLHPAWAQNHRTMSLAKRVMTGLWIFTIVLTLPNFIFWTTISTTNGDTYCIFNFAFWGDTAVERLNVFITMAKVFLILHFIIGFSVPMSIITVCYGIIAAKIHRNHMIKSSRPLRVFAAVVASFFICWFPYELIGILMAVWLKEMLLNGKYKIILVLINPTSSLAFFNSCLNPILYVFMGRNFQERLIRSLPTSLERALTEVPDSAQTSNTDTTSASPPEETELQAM

Like-named read-outs stand apart in the source and are kept apart here. Ends that are not written are not given here.

For the molecule `CC[C@H](C)[C@H](NC(=O)[C@H](Cc1ccc(O)cc1)NC(=O)[C@H](CCC(N)=O)NC(=O)[C@@H](N)CCC(=O)O)C(=O)N[C@@H](CCCCN)C(=O)N[C@@H](Cc1c[nH]c2ccccc12)C(=O)N1CCC[C@H]1C(=O)N[C@@H](Cc1c[nH]c2ccccc12)C(=O)N[C@@H](Cc1ccc(O)cc1)C(=O)N[C@H](C(=O)N[C@@H](Cc1c[nH]c2ccccc12)C(=O)N[C@@H](CC(C)C)C(=O)O)C(C)C` [CV3], on FPR1 [1], the IC50 was 3800 nM.
On to `CC[C@H](C)[C@H](NC(=O)[C@H](Cc1ccc(O)cc1)NC(=O)[C@H](Cc1c[nH]c2ccccc12)NC(=O)[C@@H]1CCCN1C(=O)[C@H](Cc1c[nH]c2ccccc12)NC(=O)[C@H](CCCCN)NC(=O)[C@@H](NC(=O)[C@H](Cc1ccc(O)cc1)NC(=O)[C@H](CCC(N)=O)NC(=O)[C@@H](N)CCC(=O)O)[C@@H](C)CC)C(=O)N[C@@H](Cc1c[nH]c2ccccc12)C(=O)N[C@@H](CC(C)C)C(=O)O` [CV7], for which the Kd stood at 489 nM on FPR2, 14 nM on FPR1 [2] and 347 nM on FPR3. Further, at FPR1 [1] (read-out: IC50 in the BRET assay), the IC50 stood at 5100 nM.

B1: fluorescently labeled N-terminally truncated HCoV-HKU-1 MPR peptide CV2∗ (peptide)
chain: MYVKWPWYVWLL
modifications: also: fluorescently labeled
With B1, the “fold lower binding affinity than the other MPR peptides” value in [3], in assay [4] and in [5] was around 10 fold throughout. Further, the figures for the Kd in assay [6], in assay [7] and in assay [8] were 66.9 nM, above 1000 nM and above 1000 nM, respectively.

As a reminder, the IC50 is the concentration that gives 50% inhibition. The term Kd denotes the concentration at which binding is half-saturated. Low values mean tighter binding, high ones weaker binding.
